Source: PMC10106861

How the values were obtained:
[1] = target: GhWRKY41 full length as GhWRKY41-NLuc and GhWRKY41-CLuc, expressed in cotton protoplasts (Gossypium hirsutum); test: split reporter
[2] = target: GhWRKY41-Myc fusion protein (Gossypium hirsutum); test: immunoprecipitation and Western blot

Substance	fold luciferase activity (after V. dahliae supernatant) [1] [fold]	fold luciferase activity (after chitin solution) [1] [fold]	fold luciferase activity over the negative control (normal condition) [1] [fold]	stoichiometry N [2]
GhWRKY41 full length as GhWRKY41-NLuc and GhWRKY41-CLuc, expressed in cotton protoplasts (natural protein)	23	27	10	–
GhWRKY41-Myc fusion protein (natural protein)	–	–	–	2
